Key:
[1] = target: T1, Human Type 1 mutCALR (human); experiment: cell-based or functional assay
T1 chain: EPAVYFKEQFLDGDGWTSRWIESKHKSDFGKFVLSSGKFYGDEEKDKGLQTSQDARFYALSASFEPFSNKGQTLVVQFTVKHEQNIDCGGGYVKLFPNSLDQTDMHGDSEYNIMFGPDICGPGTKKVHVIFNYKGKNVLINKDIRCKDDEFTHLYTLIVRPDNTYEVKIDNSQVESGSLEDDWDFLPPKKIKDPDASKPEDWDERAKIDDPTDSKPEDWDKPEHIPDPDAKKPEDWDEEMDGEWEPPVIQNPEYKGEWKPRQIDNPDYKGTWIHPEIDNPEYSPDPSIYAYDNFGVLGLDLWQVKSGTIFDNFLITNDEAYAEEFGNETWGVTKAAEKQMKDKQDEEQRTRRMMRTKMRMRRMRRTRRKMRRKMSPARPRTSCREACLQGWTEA

[2] = target: T1, Human Type 1 mutCALR; experiment: cell-based or functional assay
[3] = target: T1, Human Type 1 mutCALR; experiment: cell-based or functional assay
[4] = target: T2, Recombinant MBP-mutCALR Type 1 fusion protein (human); experiment: SPR, IgG captured, 1:1 fit, Exp. 2
T2 construct: custom made at Cepter; also called recombinant mutCALR protein
Summary of the method: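 Antibodies captured via amine-coupled anti-human IgG (Fc) on a CM4 chip; recombinant MBP-mutCALR Type 1 fusion protein as analyte. Run at 25 °C in Tris-buffered saline pH 7.2, 0.005% P20, 1 mM CaCl₂. Multiple-cycle kinetics fitted to a 1:1 binding model.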

[5] = target: T3, Recombinant MBP-mutCALR Type 2 fusion protein (human); experiment: SPR, IgG captured, 1:1 fit, Exp. 3
T3 construct: custom made at Cepter
Method: Experiment 2: Recombinant MBP-mutCALR Type 1 fusion protein was custom made at Cepter (cepterbiopartners.com). Data for the interaction of antibodies with recombinant mutCALR protein were collected at 25° C. on a Biacore 8K instrument (Cytiva, Marlborough, Mass.), and all reagents were obtained from Cytiva unless otherwise specified. The experiments were conducted using Tris-buffered saline (pH 7.2), 0.005% Surfactant P20, 1 mM CaCl₂) as running buffer. To prepare the capture surfaces, anti-human IgG (Fc) antibodies (Product #29234600) was amine-coupled onto a CM4 chip (Product #BR100534) under standard conditions using an Amine Coupling Kit (Product #BR100050). […] The kinetics parameters were obtained by applying 1:1 binding model to fit the data from multiple-cycle injection experiments using Biacore Insight Evaluation software.
Recombinant MBP-mutCALR Type 2 fusion protein was custom made at Cepter (cepterbiopartners.com). Data for the interaction of antibodies with recombinant MBP-mutCALR Type 2 fusion protein were collected as described in Experiment 2. The chip used was a Biacore Series S Sensor Chip CM4 with anti-huFc immobilized onto the chip surface.

B1: anti-mutCALR antibody clone 40 (antibody, human IgG1, lambda, V domains shown)
VH: EVQLVQSGAEVKKPGASVKVSCKVSGYTLTESSMHWVRQAPGKGLEWMGLVDPEDGETIYAQKFQGRVTMTEDTSTDTAYMELSSLRSEDTAVYYCAREEWSGDGDDAFDIWGQGTMVTVSS
VL: QSVLTQPPSVSAAPGQKVTISCSGSSSNIGSYSVSWYQQLPGTAPKLLIYDNNKRPSGIPDRFSGSNSGTSATLGITGLQTGDEADYYCGTWDSSLSAWVFGGGTKLTVLG
- IC50 of inhibition of cell proliferation (Ba/F3 cells with MPL and mutCALR Type 1) [1]: 0.0384 µg/mL
- Log IC50 of inhibition of cell proliferation, antibody + ruxolitinib (Ba/F3-TPOR/mutCALR type 1 cells); extrapolated from fitted curve [2]: -1.59 Log IC50 (µg/mL)

B2: anti-mutCALR antibody clone 41 (antibody, human IgG1, lambda, V domains shown)
VH: EVQLVQSGAEVKKPGASVKVSCKVSGYTLTELSMHWVRQAPGKGLEWMGLVDPEDGETIYAQKFQGRVTMTEDTSTDTAYMELSSLRSEDTAVYYCAREEWSGDGDDAFDIWGQGTMVTVSS
VL: QSVLTQPPSVSAAPGQKVTISCSGSSSNIGSYSVSWYQQLPGTAPKLLIYDNNKRPSGIPDRFSGSNSGTSATLGITGLQTGDEADYYCGTWDSSLSAWVFGGGTKLTVLG
- IC50 of inhibition of cell proliferation (Ba/F3 cells with MPL and mutCALR Type 1) [1]: 0.342 µg/mL
- IC50 of inhibition of cell proliferation (BaF3 cells expressing MPL/mutCALR Type 1) [3]: 3.98 µg/mL

B3: anti-mutCALR antibody clone 52 (antibody, human IgG1, kappa, V domains shown)
VH: EVQLVQSGAEVKKPGASVKVSCKVSGYTLTELSMHWVRQAPGKGLEWMGLVDPEDGETIYAEKFQGRVTITADTSTDTAYMELSSPRSEDTAVYYCATTIGDDYFDYWGQGTLVTVSS
VL: not shown
- IC50 of inhibition of cell proliferation (Ba/F3 cells with MPL and mutCALR Type 1) [1]: 0.0337 µg/mL
- Log IC50 of inhibition of cell proliferation, antibody + ruxolitinib (Ba/F3-TPOR/mutCALR type 1 cells) [2]: -0.709 Log IC50 (µg/mL)

B4: anti-mutCALR antibody clone 53 (antibody, human IgG1, lambda, V domains shown)
VH: QVQLVQSGAEVKKPGASVKVSCKVSGYTLTELSMHWVRQAPGKGLEWMGGFDPEDGETIYAQKFQGRVTMTEDTSTDTAYMELSSLRSEDTAVYYCATDIQGLAEFDYWGQGTLVTVSS
VL: QSALTQPRSVSGSPGQSVTISCTGTNTDVGAYIDVSWYQQHPGKAPKLIIYDVSKWPSGVPDRFSGSKSGNTASLTISGLQAEDEADYYCCSYAGNHSFSFGGGTKVTVLG
- IC50 of inhibition of cell proliferation (Ba/F3 cells with MPL and mutCALR Type 1) [1]: 0.399 µg/mL
- Log IC50 of inhibition of cell proliferation, antibody + ruxolitinib (Ba/F3-TPOR/mutCALR type 1 cells) [2]: -0.424 Log IC50 (µg/mL)
- Log IC50 of inhibition of cell proliferation, antibody alone (Ba/F3-TPOR/mutCALR type 1 cells) [2]: -0.173 Log IC50 (µg/mL)
- IC50 of inhibition of cell proliferation (BaF3 cells expressing MPL/mutCALR Type 1) [3]: 9.5 µg/mL

B5: anti-mutCALR antibody clone 32 (antibody, human IgG1, lambda, V domains shown)
VH: QVQLVQSGAEVKKPGATVKISCKVSGYSFTDYFIHWVQQAPGKGLAWVGLVDPEDGETIYAEKFQGRVTITADTSTDTAYMELSSLRSEDTAVYYCATPGGILTDPDAFDIWGQGTMVTVSS
VL: QSALTQPASVSGSPGQSITISCTGTSSDVGGYNYVSWYQQHPGKAPKLMIYEVSNRPSGVSNRFSGSKSGNTASLTISGLQAEDEADYYCSSYTSSSTPYVFGTGTKVTVLG
- IC50 of inhibition of cell proliferation (Ba/F3 cells with MPL and mutCALR Type 1) [1]: 0.225 µg/mL
- Log IC50 of inhibition of cell proliferation, antibody + ruxolitinib (Ba/F3-TPOR/mutCALR type 1 cells); extrapolated from fitted curve [2]: -0.586 Log IC50 (µg/mL)
- Log IC50 of inhibition of cell proliferation, antibody alone (Ba/F3-TPOR/mutCALR type 1 cells); extrapolated from fitted curve [2]: 0.18 Log IC50 (µg/mL)

B6: anti-mutCALR antibody clone 34 (antibody, human IgG1, lambda, V domains shown)
VH: QVQLVQSGAEVKKPGATVKISCKVSGYSFTDYFIHWVQQAPGKGLAWVGLVDPEDGETIYAEKFQGRVTITADTSTDTAYMELSSLRSEDTAVYYCATPGGILTDPDAFDIWGQGTMVTVSS
VL: QSALTQPASVSGSPGQSITISCTGTSSDVGGYNYVSWYQQHPGKAPKLMIYEVSNRPSGVSNRFSGSKSGNTASLTISGLQAEDEADYYCSSYTSSSTYVFGTGTKVTVLG
- IC50 of inhibition of cell proliferation (Ba/F3 cells with MPL and mutCALR Type 1) [1]: 0.0593 µg/mL

B7: anti-mutCALR antibody clone 37 (antibody, human IgG1, lambda, V domains shown)
VH: QVQLVQSGAEVKKPGATVKISCKVSGYSFTDYFIHWVQQAPGKGLAWVGLVDPEDGETIYAEKFQGRVTITADTSTDTAYMELSSLRSEDTAVYYCATPGGILTDPDAFDIWGQGTMVTVSS
VL: QSALTQPASVSGSPGQSITISCTGTSSDVGGYNYVSWYQQHPGKAPKLMIYDVSNRPSGVSNRFSGSKSGNTASLTISGLQAEDEADYYCSSYTSSSTFYVFGTGTKVTVLG
- IC50 of inhibition of cell proliferation (BaF3 cells expressing MPL/mutCALR Type 1) [3]: 0.201 µg/mL

B8: anti-mutCALR antibody clone 33 (antibody, human IgG1, lambda, V domains shown)
VH: QVQLVQSGAEVKKPGATVKISCKVSGYSFTDYFIHWVQQAPGKGLAWVGLVDPEDGETIYAEKFQGRVTITADTSTDTAYMELSSLRSEDTAVYYCATPGGILTDPDAFDIWGQGTMVTVSS
VL: QSALTQPRSVSGSPGQSVTISCAGTGSDVGGYNHVSWYQHHPGKAPKLMIYDVNKRPSGVPDRFSGSKSGNTASLTISGLQAEDEADYYCSSYIPSSTRWVFGGGTKLTVLG
- IC50 of inhibition of cell proliferation (Ba/F3 cells with MPL and mutCALR Type 1) [1]: 16.9 µg/mL

B9: anti-mutCALR antibody clone 36 (antibody, human IgG1, lambda, V domains shown)
VH: QVQLVQSGAEVKKPGATVKISCKVSGYSFTDYFIHWVQQAPGKGLAWVGLVDPEDGETIYAEKFQGRVTITADTSTDTAYMELSSLRSEDTAVYYCATPGGILTDPDAFDIWGQGTMVTVSS
VL: QSALTQPRSVSGSPGQSVTISCAGTGSDVGGYNYVSWYQHHPGKAPKLMIYDVNKRPSGVPDRFSGSKSGNTASLTISGLQAEDEADYYCSSYTSSSTFYVFGTGTKVTVLG
- IC50 of inhibition of cell proliferation (Ba/F3 cells with MPL and mutCALR Type 1) [1]: 0.0905 µg/mL
- Log IC50 of inhibition of cell proliferation, antibody + ruxolitinib (Ba/F3-TPOR/mutCALR type 1 cells); extrapolated from fitted curve [2]: -3.88 Log IC50 (µg/mL)
- IC50 of inhibition of cell proliferation (BaF3 cells expressing MPL/mutCALR Type 1) [3]: 0.98 µg/mL

B10: anti-mutCALR antibody clone 31 (antibody, human IgG1, lambda, V domains shown)
VH: QVQLVQSGAEVKKPGATVKISCKVSGYSFTDYFIHWVQQAPGKGLAWVGLVDPEDGETIYAEKFQGRVTITADTSTDTAYMELSSLRSEDTAVYYCATPGGILTDPDAFDIWGQGTMVTVSS
VL: QSALTQPASVSGSPGQSVTISCTGTSSDVGGYNYVSWYQHHPGKAPKLMIYDVNKRPSGVPDRFSGSKSGNTASLTISGLQAEDEADYYCSSYIPSSTRWVFGGGTKLTVLG
- IC50 of inhibition of cell proliferation (Ba/F3 cells with MPL and mutCALR Type 1) [1]: 13 µg/mL

B11: anti-mutCALR antibody clone 35 (antibody, human IgG1, lambda, V domains shown)
VH: QVQLVQSGAEVKKPGATVKISCKVSGYSFTDYFIHWVQQAPGKGLAWVGLVDPEDGETIYAERFQGRVTITADTSTDTAYMELSSLRSEDTAVYYCATPGGILTDPDAFDIWGQGTMVTVSS
VL: QSALTQPASVSGSPGQSITISCTGTSSDVGGYNYVSWYQQHPGKAPKLMIYEVSNRPSGVSNRFSGSKSGNTASLTISGLQAEDEADYYCSSYTSSSTPYVFGTGTKVTVLG
- IC50 of inhibition of cell proliferation (Ba/F3 cells with MPL and mutCALR Type 1) [1]: 0.088 µg/mL
- IC50 of inhibition of cell proliferation (BaF3 cells expressing MPL/mutCALR Type 1) [3]: 2.18 µg/mL

B12: anti-mutCALR antibody clone 65 (antibody, human IgG1, lambda, N297A, V domains shown)
VH: EVQLVQSGAEVKKPGASVKVSCKVSGYTLTELSMQWVRQAPGKGLEWMGGFDPDDGETMYAEKFQGRLTVTEDTSTDTVYMELRSLTSEDTALYFCATSPGYDFFDYWGQGTLVTVSS
VL: SYVLTQPPSVSVAPGKTARITCTGTSSDVGGYNYVSWYQQKPGQAPVLVVYEVSNRPSGIPERFSGSNSGNTATLTISRVEAGDEADYYCQVWDSSNDLLIFGGGTKLTVLG
notes: human IgG1 N297A variant of clone 6
- Kd [4]: 0.502 nM
- koff [4]: 0.00231 s⁻¹
- kon [4]: 4.6e+06 M⁻¹ s⁻¹
- Kd [5]: 6.35 nM
- koff [5]: 0.00424 s⁻¹
- kon [5]: 668000 M⁻¹ s⁻¹

B13: anti-mutCALR antibody clone 74 (antibody, human IgG1, lambda, N297A, V domains shown)
VH: EVQLVQSGAEVKKPGASVKVSCKVSGYTLTELSMQWVRQAPGKGLEWMGGFDPDDAETMYAEKFQGRLTVTEDTSTDTVYMELSSLRSEDTAVYFCATSPGYDFFDYWGQGTLVTVSS
VL: SYVLTQPPSVSVAPGKTARITCTGTSSDVGGYNYVSWYQQKPGQAPVLVVYEVSNRPSGIPERFSGSNSGNTATLTISRVEAGDEADYYCQVWDSSNDLLIFGGGTKLTVLG
notes: as for B12
- Kd [4]: 1.19 nM
- koff [4]: 0.00153 s⁻¹
- kon [4]: 1.29e+06 M⁻¹ s⁻¹
- Kd [5]: 6.78 nM
- koff [5]: 0.00579 s⁻¹
- kon [5]: 854000 M⁻¹ s⁻¹

B14: anti-mutCALR antibody clone 162 (antibody, human IgG1, lambda, N297A)
heavy: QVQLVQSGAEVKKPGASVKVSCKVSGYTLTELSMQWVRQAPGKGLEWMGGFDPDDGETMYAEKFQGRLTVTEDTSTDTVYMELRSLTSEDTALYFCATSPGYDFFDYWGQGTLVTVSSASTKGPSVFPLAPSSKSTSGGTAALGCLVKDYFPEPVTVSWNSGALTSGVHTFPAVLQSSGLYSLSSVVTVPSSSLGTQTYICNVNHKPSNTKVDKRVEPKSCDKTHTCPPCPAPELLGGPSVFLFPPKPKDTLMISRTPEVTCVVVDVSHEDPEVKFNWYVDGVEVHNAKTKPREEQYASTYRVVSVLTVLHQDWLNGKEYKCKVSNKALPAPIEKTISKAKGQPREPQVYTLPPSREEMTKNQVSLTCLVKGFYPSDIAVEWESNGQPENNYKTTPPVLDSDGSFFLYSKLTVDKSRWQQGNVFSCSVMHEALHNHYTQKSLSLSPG
light: SYVLTQPPSVSVAPGKTARITCGGDNIGSKSVHWYQQKPGQAPVLVVYDDSDRPSGIPERFSGSNSGNTATLTISRVEAGDEADYYCQVWDSSNDLLIFGGGTKLTVLGQPKAAPSVTLFPPSSEELQANKATLVCLISDFYPGAVTVAWKADSSPVKAGVETTTPSKQSNNKYAASSYLSLTPEQWKSHRSYSCQVTHEGSTVEKTVAPTECS
notes: human IgG1 N297A variant of clone 15
- Kd [5]: 11.2 nM
- koff [5]: 0.00682 s⁻¹
- kon [5]: 607000 M⁻¹ s⁻¹
